Measurements: patent US20220056125A1 (CEPHALON, published 2022)

Tests used:
human PAR-2 [1] = target: T1, human PAR-2 (human, UniProt P55085 26-397); assay: cell-based or functional assay
T1 sequence: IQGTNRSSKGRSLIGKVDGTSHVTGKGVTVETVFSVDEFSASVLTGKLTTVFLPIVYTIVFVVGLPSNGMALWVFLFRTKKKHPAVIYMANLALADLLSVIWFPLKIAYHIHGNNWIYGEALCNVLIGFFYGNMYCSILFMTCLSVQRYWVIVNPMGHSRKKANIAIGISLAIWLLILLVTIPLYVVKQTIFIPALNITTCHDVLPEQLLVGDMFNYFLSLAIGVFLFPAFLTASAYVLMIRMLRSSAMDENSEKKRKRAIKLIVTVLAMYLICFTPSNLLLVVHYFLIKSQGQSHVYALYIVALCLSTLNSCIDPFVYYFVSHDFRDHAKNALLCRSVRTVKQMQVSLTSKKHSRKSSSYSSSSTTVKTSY

human PAR-2 [2] = target: T1, human PAR-2; assay: cell-based or functional assay; remark: listed apart in the source
human PAR-2 [3] = target: T1, human PAR-2; assay: cell-based or functional assay; remark: listed apart in the source
human PAR-2 [4] = target: T1, human PAR-2; assay: cell-based or functional assay; remark: listed apart in the source
rat PAR-2 on cells = target: T2, rat PAR-2 on cells (rat, UniProt Q63645 26-397); assay: flow cytometry, transiently transfected CHEM-1 cells
T2 construct: transiently transfected CHEM-1 cells
T2 sequence: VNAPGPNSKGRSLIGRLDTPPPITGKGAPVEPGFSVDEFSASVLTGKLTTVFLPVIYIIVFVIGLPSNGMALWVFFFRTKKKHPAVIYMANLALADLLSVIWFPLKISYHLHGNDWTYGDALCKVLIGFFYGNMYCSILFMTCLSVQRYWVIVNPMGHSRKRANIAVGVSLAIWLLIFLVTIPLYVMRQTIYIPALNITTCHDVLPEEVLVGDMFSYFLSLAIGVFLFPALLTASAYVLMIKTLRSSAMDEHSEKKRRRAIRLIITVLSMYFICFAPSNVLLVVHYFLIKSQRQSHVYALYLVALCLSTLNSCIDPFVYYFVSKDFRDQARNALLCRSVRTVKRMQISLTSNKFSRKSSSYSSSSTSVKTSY
Protocol: The cells were plated in 96 well plates at 2×10⁵ cells/well. Following a wash step using Phosphate buffered saline (PBS), the primary antibody (anti-PAR-2 antibody) was added at a concentration of 10 μg/mL in 50 μL of FACS buffer (0.5% w/v BSA in PBS) to each well and incubated for 10-15 mins. Following a wash step, secondary antibody (anti-human Fc-FITC) was added to the wells at 1:200 dilution in 50 μL for 10-15 mins. Following a washing step, the cells were re-suspended in fluorescence-activated cell sorting (FACS) buffer. The flow cytometry analysis was performed on an Intellicyt iQue screener. Gates were drawn around the different intensities of encoder dye-positive cells and these populations were analyzed separately from each other and the unlabeled cells for binding by the primary antibody.
P24E1102 binding was also assessed by flow cytometry, as described in Example 1 supra, using PAR-2 transiently transfected into CHEM-1 cells. In addition to human, cynomolgus, mouse and rat, guinea pig, rabbit and dog PAR-2 were also tested. P24E1102 bound well to human and cynomolgus PAR-2 but minimally to all other species tested.

recombinant human PAR-2 = target: T3, recombinant human PAR-2 (human, UniProt P55085 37-397, limits assumed); assay: SPR, antibody captured on Protein A chip, recombinant PAR-2 injected
T3 construct: detergent-solubilised preparation used in SPR; also called recombinant PAR-2
T3 sequence: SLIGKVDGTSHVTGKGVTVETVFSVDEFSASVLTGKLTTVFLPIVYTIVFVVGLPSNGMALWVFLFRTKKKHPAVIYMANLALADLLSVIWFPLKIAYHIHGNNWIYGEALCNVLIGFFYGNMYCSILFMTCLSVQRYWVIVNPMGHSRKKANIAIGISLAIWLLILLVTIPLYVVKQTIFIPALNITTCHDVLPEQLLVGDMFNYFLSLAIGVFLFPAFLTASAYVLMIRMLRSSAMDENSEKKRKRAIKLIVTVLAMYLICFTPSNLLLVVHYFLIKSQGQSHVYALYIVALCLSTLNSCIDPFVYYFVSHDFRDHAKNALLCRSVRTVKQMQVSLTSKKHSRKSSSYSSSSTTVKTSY
Protocol: (§1) Selected antibodies were tested for binding to various species of PAR-2 using surface plasmon resonance (SPR) assay for antibody binding to recombinant PAR-2, except that human PAR-2 was substituted with PAR-2 from cynomolgus monkeys, rat, or mice.
(§2) Antibodies were transfected and harvested as described in Example 3, supra. Antibodies in supernatant were diluted 1 in 50-250 in running buffer (50 mM HEPES, 250 mM NaCl, 0.1% w/v LMNG, 0.025% w/v CHAPS, 0.005% CHS, pH 7.4) and purified antibodies were diluted to 0.5 ug/mL in running buffer A Series S Protein A chip was docked into the instrument (Biacore S20) and the system was primed four times with running buffer prior to the run. Recombinant human PAR-2 was diluted to 0-5 μg/mL in running buffer. The surface was regenerated using 50 mM NaOH. The antibody was captured to between 20 to 110 Relative Units on the chip surface. The sample (recombinant PAR-2) was injected for 1 min at 30 μl/min, followed by dissociation phase of 180s. Sensorgrams were double referenced by buffer subtraction and by reference cell subtraction. Binding curves were then fit to a 1:1 binding model with kinetic constants derived from curve fits. Antibodies were ranked by dissociation rate (kd) when only one concentration of antigen was injected. Antibodies were ranked by their equilibrium dissociation constant (KD) when multiple concentrations of PAR-2 were injected. […]

[5] = target: T4, recombinant cynomolgus monkey PAR-2 (cynomolgus monkey); assay: as above
T4 construct: also called cynomolgus PAR-2
Protocol: as §1, §2

T4 sequence (Q863Y8 other isoform, or with tags, fused parts or gaps): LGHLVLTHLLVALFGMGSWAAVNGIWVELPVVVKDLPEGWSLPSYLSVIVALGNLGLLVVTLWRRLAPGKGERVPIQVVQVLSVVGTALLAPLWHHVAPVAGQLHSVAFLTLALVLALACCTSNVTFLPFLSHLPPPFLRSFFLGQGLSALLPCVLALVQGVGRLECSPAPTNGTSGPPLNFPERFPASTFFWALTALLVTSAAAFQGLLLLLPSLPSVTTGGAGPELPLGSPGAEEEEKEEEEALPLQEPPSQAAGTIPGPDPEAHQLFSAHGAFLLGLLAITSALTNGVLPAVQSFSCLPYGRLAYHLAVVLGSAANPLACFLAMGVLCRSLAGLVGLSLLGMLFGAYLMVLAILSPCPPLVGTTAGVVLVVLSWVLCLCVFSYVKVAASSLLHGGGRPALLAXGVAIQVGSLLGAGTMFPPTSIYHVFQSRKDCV

IC50, PAR-2 activating ligand-induced calcium flux in A549 cells (human PAR-2 [1]): 13.2 nM
PAR-2 β-arrestin cell based assay IC50, 2 µM SLIGKV (human PAR-2 [2]): 1.4 nM
Calcium flux IC50 (human PAR-2 [3]): 17.4 nM
IL-6 release in A549 cells IC50 (human PAR-2 [3]): 5 nM
IL-8 release in A549 cells IC50 (human PAR-2 [3]): 4.62 nM
IC50 mean, calcium flux at SLIGKV EC80, Nomad line (human PAR-2 [4]): 2.07 nM
IC50 mean, β-arrestin at SLIGKV EC80, Nomad line (human PAR-2 [4]): 5.38 nM
binding result (rat PAR-2 on cells): binds
Kd (recombinant human PAR-2): 0.433 to 0.946 nM
Kd [5]: 4.45 nM
B1: P24E1102 (antibody, human IgG4 S228P, kappa, V domains shown)
VH: QVQLVQSGAEVKKPGSSVKVSCKASGFSLSSYAISWVRQAPGQGLEWMGVIWGNQNVYYAQKFQGRVTITADESTSTAYMELSSLRSEDTAVYYCARWKGYKDYPFDYWGQGTLVTVSS
VL: EIVLTQSPATLSLSPGERATLSCRASQNVYKWLDWYQQKPGQAPRLLIYNANTRATGIPARFSGSGSGRDFTLTISSLEPEDFAVYYCQQHHSGWTFGGGTKVEIKR
notes: human IgG4 S228P K447del / kappa; also called Anti-PAR-2 (P24E1102); TEV-56192 P24E1102
